Results published in patent US5807824A, “C5A receptor antagonists having substantially no agonist activity” (priority 1995, dated 1998).
Where a SMILES comes first, the peptide text is derived from it.

Key:
[1] = target: T1, C5a receptor (Homo sapiens, UniProt P21730); test: C5a induced Ca++ rise assay in fura-2 loaded neutrophils; type: cell-based; settings: for IC50 / EC50: Table 6, Example 10 comparison with decapeptide; for Concentration up to which tested with agonist activity not detected: calcium rise assay
T1 construct: Neutrophils were purified from human peripheral blood; endogenous in cells; host or cells: neutrophils from human peripheral blood
T1 sequence (P21730 1-350): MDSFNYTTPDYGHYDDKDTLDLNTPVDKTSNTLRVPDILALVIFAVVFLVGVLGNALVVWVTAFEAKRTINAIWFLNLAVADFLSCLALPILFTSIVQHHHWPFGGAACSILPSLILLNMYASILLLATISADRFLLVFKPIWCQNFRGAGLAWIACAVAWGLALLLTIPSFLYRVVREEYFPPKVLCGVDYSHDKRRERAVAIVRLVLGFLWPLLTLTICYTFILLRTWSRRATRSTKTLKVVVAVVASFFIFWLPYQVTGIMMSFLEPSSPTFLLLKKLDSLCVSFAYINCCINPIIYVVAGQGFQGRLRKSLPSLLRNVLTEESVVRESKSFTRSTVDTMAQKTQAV
From the text: The antagonism of the instant C5a analogues may be quantified as an IC50 in the calcium rise assay disclosed in Seligmann et al., Agents and Actions 21:375-378 (1987), described in detail in Example 7.
See Hugli et al., CRC Crit. Rev. Immunol. 1:321-326 (1981) and PCT WO 92/10205. A quantitative measure of this property may also be obtained using the calcium rise assay disclosed in Seligmann et al., supra, also described in Example 7. EC50 is a measure of agonistic activity.
Recombinant human C5a was dissolved in Hanks buffer containing 0.01% Tween-20, and all stock dilutions of C5a were made in this buffer. The acetoxymethyl ester of fura-2 (fura 2AM, Molecular Probes) was dissolved in DMSO. Neutrophils were purified from human peripheral blood by sedimentation in 6% hetastarch (HESPAN, DuPont, Waukegan, Ill., followed by counter flow elutriation as described in Chapman-Kirkland et al., J. Immunol. Meth. 142:95-104 (1991). Purified cells (2×10^6/ ml) were mixed with 0.2 uM fura- 2AM and incubated for 30 min at 37° C. in HEPES buffered Hanks solution without calcium or magnesium. Fifteen minutes before the assay, the cell suspension was transferred to a curvette containing a stir bar and calcium was added to 1 mM. The cell suspension was incubated with stirring at 37° C. Assays were terminated within 5 h of cell purification and a standard control response was obtained periodically to insure that the cell responses were not changing over the time of the experiment. The amount of fluorescence was determined using an SLM 8000 spectrofluorometer (SLM-Aminco Instruments, Urbana, Ill.). Curvettes were placed in the fluorometer and after obtaining a baseline for 10 sec, the C5a receptor antagonists to be tested for antagonistic properties were added and any change in fluoresence excitation ratio of 340 nm/380 nm (emission of 510 nm) was measured. Forty seconds after analogue addition, a challenge dose of C5a was added to a final concentration of 100 pM and the resulting change in excitation ratio was measured.
IC50 values were used as a measure of antagonist potency. These values are defined as the concentration of C5a analogue needed to reduce the calcium rise response of the 100 pM C5a challenge dose by 50%. EC50 values were used as a measure of agonist potency. […]

[2] = target: T1, C5a receptor; test: Receptor binding assay: displacement of [125I]Bolton-Hunter labelled C5a from PMNL membranes
Experimental: C5a and C5a receptor antagonists were tested for their affinity for the C5a receptor. […] PMNLs were resuspended in Hanks balanced salt solution, without Ca^++ and Mg^++ and which contained 10 mM HEPES at pH 7.3, 2.5 mM MgCl2, 100 units/ml DNAse I, 0.1 mM PMSF, 10 μg/ml aprotonin and 10 μg/ml leupeptin. They were then equilibrated at 400 psi for 20 min at 4° C. in a nitrogen cavitation bomb. After evacuation into 3 volumes 0.5M KHCO3 containing 25 mM EDTA and the protease inhibitors listed above, the gelatinous material was removed with forceps and the mixture was centrifuged at 400×g for 10 min at 4° C. The resulting supernatant was centrifuged at 50,000×g for 60 min at 4° C. The pellets from the aliquots representing 200×10^6 cells were stored at -70° C. For binding studies, these membranes were resuspended at an equivalent of 20×10^6 cells/ml in 50 mM HEPES at pH 7.3, containing 1 mM CaCl2, 5 mM MgCl2, 0.1 mM PMSF, 0.1% bacitracin and 0.5% BSA.
Nonspecific binding was determined in the presence of 10 nM unlabelled C5a. The binding reaction was initiated by the addition of the PMNL membranes and was continued for 120 min at 4° C. Bound and free radioactivity were separated by vacuum filtration through GF/C glass fiber filters (Whatman), pretreated for 90 min with 0.05% PEI (polyethyleneimine) using a Cell Harvester (Brandel, Gaithersburg, Md.). Filters were washed with 3×5 ml of ice-cold 5 mM Tris buffer at pH 7.4 and counted in a multiwell Gamma counter (Genesys). Data were analyzed using the non-linear regression analysis program, RS/1 (Bolt, Beranek and Newman, Boston) and expressed as IC50 values. The results are set forth below in Table 4 as Ki values using the Cheng-Presoff equation. See Braunwalder et al., supra.

[3] = test system: C5a-induced enhancement in vascular permeability; test: Rabbit dermal model of inflammation ([125I]-BSA exudation at intradermal sites); type: in vivo, New Zealand White rabbits
Experimental: All experiments were performed on male New Zealand White rabbits weighing 2.5-3.0 kg. The backs of the rabbits were shaved and 40-50 skin sites were designated with markers of different colors. Different stimuli (i.e., C5a, C5a analogue, C5a+C5a analogue, vehicle control, etc.) were injected intradermally at 0.1 ml/site using a sterile, disposable, 26 gauge, 0.5 in. needle and 1.0 cc tuberculin syringe. I.D. injections were administered in replicates of six, roughly 45 minutes before euthanization. C5a alone was injected at a dose of 50 ng/site, and the C5a receptor antagonists were co-injected at various concentrations with the same dose of C5a. At 20 minutes prior to euthanization, 18-36 uCi of [125I]-labeled bovine serum albumin in 1.0 ml physiological saline were introduced into the systemic circulation via the marginal auricular vein. At 45 minutes, the rabbit was euthanized with an I.V. overdose of sodium pentobarbital. […]
After death, the dorsal skin was excised and pinned to a wooden dissecting board. […] This procedure reduced variation among skin sites and decreased background radioactivity. […] Injection sites were then analyzed for their radioactive content using a Gamma Counter (Genesys).

[4] = test system: C5a-induced neutropenia; test: C5a-induced neutropenia in the rabbit; type: in vivo, New Zealand White rabbits; settings: i.v. bolus; for Inhibition of C5a-induced neutropenia versus vehicle-treated rabbits: 100 ng C5a
Experimental: All experiments were performed on male New Zealand White rabbits weighing 2.5-3.0 kg. Rabbits were anesthetized with 10 mg/kg xylazine and 50 mg/kg ketamine administered in combination intramuscularly. A 25 gauge butterfly catheter was inserted in the lateral ear vein to use for infusions. Each blood sample (0.2 ml) was collected from the central ear artery into a plastic syringe fitted with a 25 gauge, 5/8 inch needle and charged with 7.5% EDTA as an anticoagulant. Blood was immediately expressed into a microcentrifuge tubes containing 10 microliters of 7.5% EDTA. An initial arterial blood sample (#1) was obtained and immediately thereafter vehicle or the C5a analogue of Example 8 was infused intravenously (bolus injection). Twenty seconds later, a second blood sample (#2) was obtained and twenty seconds thereafter 100 ng of C5a in 0.2 ml were infused intravenously (bolus injection). Twenty seconds later, a third blood (#3) sample was taken. Thirty minutes later, a second round of blood sample (#4)----20 seconds--C5a infusion--20 seconds--blood sample (#5) was performed. Blood samples were evaluated by automated hematologic analysis (Technicon H*1) using software specific for rabbit blood. Reductions in neutrophil counts (number per milliliter) induced by C5a(C5a-induced neutropenia, determined by comparing blood sample #3 to #2 and #5 to #4) were compared between vehicle-treated and C5a analogue-treated animals.

[5] = Table 4, [125I]BH-C5a 4.0 pM, PMNL membranes, Cheng-Prusoff
[6] = Table 6, Example 10 comparison with decapeptide

`CC[C@H](C)[C@H](N)C(=O)N[C@@H](CO)C(=O)N[C@@H](Cc1ccccc1)C(=O)N[C@@H](CCCCN)C(=O)N[C@@H](CC(=O)O)C(=O)N[C@@H](CCSC)C(=O)N[C@@H](CCC(N)=O)C(=O)N[C@@H](CC(C)C)C(=O)NCC(=O)N[C@@H](CCCNC(=N)N)C(=O)O` [Decapeptide, reference compound] (H-ISFKDMQLGR-OH) was tested, and the “Agonist / antagonist character” value ([1]; stated in words) was “significant agonist activity”.

B1: C5a (1-72, T1M, C27S, L72C) (protein, UniProt P01031 678-751, looked up, variant T1M C27S L72C)
C5a anaphylatoxin: MLQKKIEEIAAKYKHSVVKKCCYDGASVNNDETCEQRAARISLGPRCIKAFTECCVVASQLRANISHKDMQCGR
modifications: C5a anaphylatoxin truncated to residues 1-72
B1 gave an IC50 [1] of 621 nM, a Concentration up to which tested with agonist activity not detected [1] of over 1.5 µM and a Ki [2, 5] of 0.9 nM. For the same molecule, the Ki [2, 6] was 0.15 nM.

B2: C5a (1-71, T1M, C27S, Q71C) (protein, UniProt P01031 678-751, looked up, variant T1M C27S Q71C)
C5a anaphylatoxin: MLQKKIEEIAAKYKHSVVKKCCYDGASVNNDETCEQRAARISLGPRCIKAFTECCVVASQLRANISHKDMCLGR
modifications: C5a anaphylatoxin
With B2 the “Pro-inflammatory reaction (agonist properties in vivo)” value ([3]; analogue at 175 ng/site intradermally) was “did not cause a pro-inflammatory reaction”, the “ID50 (dose causing 50% reduction in radioactivity produced by C5a)” value ([3]; co-injected intradermally with 50 ng C5a/site) was 70 ng/site and the “Effect on baseline neutrophil counts (agonistic, C5a-like properties)” value ([4]; before C5a challenge) was “did not alter baseline neutrophil counts from normal”. The “Inhibition of C5a-induced neutropenia versus vehicle-treated rabbits” value ([4]; 30-minute C5a challenge interval) was 41%, the “Inhibition of C5a-induced neutropenia versus vehicle-treated rabbits” value ([4]; 40-second C5a challenge interval) was 67% and the IC50 [1] was 51 nM. The “Concentration up to which tested with agonist activity not detected” value [1] was over 3 µM, the Ki [2, 5] was 0.2 nM and the Ki [2, 6] was 0.04 nM.

B3: C5a (1-70, T1M, C275, M7OC) (protein, UniProt P01031 678-747, looked up, variant T1M C27S M70C)
chain: MLQKKIEEIAAKYKHSVVKKCCYDGASVNNDETCEQRAARISLGPRCIKAFTECCVVASQLRANISHKDC
modifications: C5a anaphylatoxin
B3 was tested, and the IC50 [1] was 859 nM, the Concentration up to which tested with agonist activity not detected [1] was over 1 µM and the Ki [2, 5] was 0.4 nM. It also gave a Ki [2, 6] of 0.35 nM.

B4: C5a (1-71, T1M, C27S, H67F, Q71C) (protein, UniProt P01031 678-751, looked up, variant T1M C27S H67F Q71C)
C5a anaphylatoxin: MLQKKIEEIAAKYKHSVVKKCCYDGASVNNDETCEQRAARISLGPRCIKAFTECCVVASQLRANISFKDMCLGR
modifications: C5a anaphylatoxin truncated to residues 1-71
For B4, the “Concentration up to which tested with agonist activity not detected” value [1] was over 0.8 µM and the Ki [2, 5] was 0.1 nM.

B5: C5a (1-68, T1M, C27S, K68C) (protein, UniProt P01031 678-745, looked up, variant T1M C27S K68C)
chain: MLQKKIEEIAAKYKHSVVKKCCYDGASVNNDETCEQRAARISLGPRCIKAFTECCVVASQLRANISHC
modifications: C5a anaphylatoxin
B5 was tested, and the IC50 [1] was 84 nM and the Ki [2, 6] was 0.06 nM.

B6: C5a (1-73, T1M, C27S, G73C) (protein, UniProt P01031 678-751, looked up, variant T1M C27S G73C)
C5a anaphylatoxin: MLQKKIEEIAAKYKHSVVKKCCYDGASVNNDETCEQRAARISLGPRCIKAFTECCVVASQLRANISHKDMQLCR
modifications: C5a anaphylatoxin truncated to residues 1-73
notes: agonist, included for comparison
B6 showed an EC50 [1] of 0.6 nM and a Ki [2, 6] of 0.03 nM.

B7: C5a: human C5a, a 74-amino acid polypeptide; recombinant human C5a used as reference agonist (protein, UniProt P01031 678-751, looked up)
C5a anaphylatoxin: TLQKKIEEIAAKYKHSVVKKCCYDGACVNNDETCEQRAARISLGPRCIKAFTECCVVASQLRANISHKDMQLGR
modifications: C5a anaphylatoxin
For B7, the EC50 [1] was 0.07 nM.
